Data set [1] relates to HeLa Kyoto. The data set is described as follows: solubility in G1/S (NP-40 vs SDS abundance) (log2 ratio); higher = more soluble. Particulars: cell cycle stage: G1/S.
Data set [2] has as its system HeLa Kyoto. The data set is described as follows: melting temperature (median over replicates), in situ; higher = more thermally stable.
Data set [3] deals with HeLa Kyoto. Put plainly: solubility change mitosis vs G1/S (difference of NP-40 vs SDS log2 ratios) (log2 ratio difference); higher = more soluble in mitosis.
Data set [4] has as its system HeLa Kyoto. Put plainly: thermal stability score vs G1/S (z-score of summed log2 fold changes over temperatures); higher = more thermally stable than in G1/S.
[5] abbreviates: cell cycle stage: early G1 (4.5 h after nocodazole release).
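Throughout, for melting temperature (median over replicates), in situ: HeLa Kyoto cells synchronized by double thymidine or nocodazole block, proteins quantified by TMT10plex mass spectrometry, three independent biological replicates.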
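Throughout, for solubility change mitosis vs G1/S (difference of NP-40 vs SDS log2 ratios): synchronized HeLa Kyoto cells (double thymidine block for G1/S, nocodazole release for mitosis), protein amounts in NP-40 versus SDS lysates quantified by mass spectrometry, three biological replicates.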
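Throughout, for solubility in G1/S (NP-40 vs SDS abundance): HeLa Kyoto cells arrested at G1/S by double thymidine block, proteins quantified by TMT10plex mass spectrometry in mild NP-40 versus SDS extracts, three biological replicates.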
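Throughout, for thermal stability score vs G1/S (z-score of summed log2 fold changes over temperatures): synchronized HeLa Kyoto cells, proteins quantified by TMT10plex mass spectrometry, three biological replicates, mitosis taken 0.5 h after nocodazole release, G1/S directly after double thymidine block.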

LMO7, sequence (chain, as listed by the source): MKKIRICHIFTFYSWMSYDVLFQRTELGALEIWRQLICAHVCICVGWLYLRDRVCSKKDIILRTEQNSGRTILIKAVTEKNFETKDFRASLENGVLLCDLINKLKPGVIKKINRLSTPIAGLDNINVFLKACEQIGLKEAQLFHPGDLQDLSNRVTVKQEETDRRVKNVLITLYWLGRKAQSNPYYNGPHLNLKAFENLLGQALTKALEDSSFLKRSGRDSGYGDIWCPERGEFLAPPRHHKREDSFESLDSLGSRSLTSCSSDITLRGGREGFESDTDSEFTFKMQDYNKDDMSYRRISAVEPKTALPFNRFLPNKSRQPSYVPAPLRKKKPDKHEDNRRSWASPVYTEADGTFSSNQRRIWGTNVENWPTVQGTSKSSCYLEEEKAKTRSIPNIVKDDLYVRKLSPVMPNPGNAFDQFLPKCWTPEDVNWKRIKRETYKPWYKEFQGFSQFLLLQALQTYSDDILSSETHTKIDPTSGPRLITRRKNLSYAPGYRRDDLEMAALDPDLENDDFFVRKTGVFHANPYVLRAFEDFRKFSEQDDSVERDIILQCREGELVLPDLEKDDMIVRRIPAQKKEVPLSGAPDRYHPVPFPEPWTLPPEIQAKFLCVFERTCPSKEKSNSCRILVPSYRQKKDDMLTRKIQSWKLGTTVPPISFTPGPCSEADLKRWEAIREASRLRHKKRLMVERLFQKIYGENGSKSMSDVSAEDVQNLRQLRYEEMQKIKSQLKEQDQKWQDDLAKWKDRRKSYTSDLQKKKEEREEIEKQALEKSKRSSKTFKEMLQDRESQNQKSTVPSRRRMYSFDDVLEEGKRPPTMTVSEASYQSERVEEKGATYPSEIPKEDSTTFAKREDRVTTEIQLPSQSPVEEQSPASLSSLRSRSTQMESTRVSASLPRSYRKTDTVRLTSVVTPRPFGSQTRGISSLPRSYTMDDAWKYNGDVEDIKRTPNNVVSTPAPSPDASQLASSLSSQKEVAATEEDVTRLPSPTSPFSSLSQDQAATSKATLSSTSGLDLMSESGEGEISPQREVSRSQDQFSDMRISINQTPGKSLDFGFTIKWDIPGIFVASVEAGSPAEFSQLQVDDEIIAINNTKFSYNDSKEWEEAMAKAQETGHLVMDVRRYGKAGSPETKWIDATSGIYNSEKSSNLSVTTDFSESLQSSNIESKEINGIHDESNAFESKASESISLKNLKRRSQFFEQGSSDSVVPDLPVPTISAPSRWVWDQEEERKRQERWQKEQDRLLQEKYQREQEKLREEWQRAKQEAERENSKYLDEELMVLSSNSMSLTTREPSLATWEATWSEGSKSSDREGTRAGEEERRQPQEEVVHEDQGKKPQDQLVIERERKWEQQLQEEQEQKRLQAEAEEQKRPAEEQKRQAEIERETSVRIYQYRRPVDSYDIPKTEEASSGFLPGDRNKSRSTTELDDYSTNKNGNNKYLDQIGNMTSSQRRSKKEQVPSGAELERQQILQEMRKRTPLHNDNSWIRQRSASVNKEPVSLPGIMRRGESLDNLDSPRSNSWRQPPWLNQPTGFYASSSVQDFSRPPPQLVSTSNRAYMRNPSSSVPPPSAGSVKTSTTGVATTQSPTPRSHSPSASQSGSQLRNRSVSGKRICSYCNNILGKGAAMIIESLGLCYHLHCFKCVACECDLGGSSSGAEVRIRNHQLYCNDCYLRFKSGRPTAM
STRIP1, sequence (chain, as listed by the source): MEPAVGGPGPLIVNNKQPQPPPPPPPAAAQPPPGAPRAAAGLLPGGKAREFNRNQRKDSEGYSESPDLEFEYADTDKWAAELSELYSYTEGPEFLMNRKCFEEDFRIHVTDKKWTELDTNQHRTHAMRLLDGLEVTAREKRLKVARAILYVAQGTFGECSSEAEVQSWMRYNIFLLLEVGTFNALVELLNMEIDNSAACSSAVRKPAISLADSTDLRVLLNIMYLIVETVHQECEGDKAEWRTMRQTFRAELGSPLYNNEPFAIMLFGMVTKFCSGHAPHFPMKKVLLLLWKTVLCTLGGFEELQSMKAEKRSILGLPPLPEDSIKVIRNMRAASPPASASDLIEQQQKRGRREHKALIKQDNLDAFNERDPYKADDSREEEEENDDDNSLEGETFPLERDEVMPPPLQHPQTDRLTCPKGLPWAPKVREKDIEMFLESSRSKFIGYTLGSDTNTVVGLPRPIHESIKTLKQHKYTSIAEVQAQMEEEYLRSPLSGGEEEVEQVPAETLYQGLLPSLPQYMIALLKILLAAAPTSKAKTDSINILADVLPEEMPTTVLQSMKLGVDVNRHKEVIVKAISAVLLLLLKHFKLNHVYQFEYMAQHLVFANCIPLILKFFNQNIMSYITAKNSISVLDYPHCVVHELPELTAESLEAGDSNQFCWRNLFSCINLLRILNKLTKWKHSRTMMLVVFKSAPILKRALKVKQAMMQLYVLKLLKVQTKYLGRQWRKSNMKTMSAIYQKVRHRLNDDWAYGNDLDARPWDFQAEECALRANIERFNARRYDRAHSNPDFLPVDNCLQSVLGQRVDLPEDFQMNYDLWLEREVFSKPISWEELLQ

For “MEVLAAETTSQQERLQAIAEKRKRQAEIENKRRQLEDERRQLQHLKSKALRERWLLEGTPSSASEGDEDLRRQMQDDEQKTRLLEDSVSRLEKEIEVLERGDSAPATAKENAAAPSPVRAPAPSPAKEERKTEVVMNSQQTPVGTPKDKRVSNTPLRTVDGSPMMKAAMYSVEITVEKDKVTGETRVLSSTTLLPRQPLPLGIKVYEDETKVVHAVDGTAENGIHPLSSSEVDELIHKADEVTLSEAGSTAGAAETRGAVEGAARTTPSRREITGVQAQPGEATSGPPGIQPGQEPPVTMIFMGYQNVEDEAETKKVLGLQDTITAELVVIEDAAEPKEPAPPNGSAAEPPTEAASREENQAGPEATTSDPQDLDMKKHRCKCCSIM [PALM]”, the “solubility in G1/S (log2)” value in data set [1] turned out to be 0.0461. The figures for the melting temperature in data set [2] (cell cycle stage: G1/S) and in data set [2] (cell cycle stage: mitosis) were 55.2 °C and 57 °C, respectively. In addition, in data set [3], the “solubility change mitosis (log2)” value worked out at 0.116. Further, the thermal stability score in data set [4] (setting [5]) is -0.779; in data set [4] (cell cycle stage: mitosis) it was -1.02.

As for “MLSRAVCGTSRQLAPVLGYLGSRQKHSLPDLPYDYGALEPHINAQIMQLHHSKHHAAYVNNLNVTEEKYQEALAKGDVTAQIALQPALKFNGGGHINHSIFWTNLSPNGGGEPKGELLEAIKRDFGSFDKFKEKLTAASVGVQGSGWGWLGFNKERGHLQIAACPNQDPLQGTTGLIPLLGIDVWEHAYYLQYKNVRPDYLKAIWNVINWENVTERYMACKK [SOD2]”, the “solubility in G1/S (log2)” value in data set [1] was 0.614. The melting temperature in data set [2] (cell cycle stage: G1/S) was determined as 58.3 °C; in data set [2] (cell cycle stage: mitosis), 56.8 °C. For the same substance, the “solubility change mitosis (log2)” value in data set [3] was found to be 0.133. For the same substance, the results for the thermal stability score in data set [4] (setting [5]) and in data set [4] (cell cycle stage: mitosis) were -0.479 and -0.233, respectively.

Turning to HEATR1, the “solubility in G1/S (log2)” value in data set [1] was -1.01. For the same substance, the melting temperature in data set [2] (cell cycle stage: G1/S) was determined as 48.4 °C; in data set [2] (cell cycle stage: mitosis), 49.2 °C. The “solubility change mitosis (log2)” value in data set [3] was found to be 0.265. Further, the thermal stability score in data set [4] (setting [5]) is 1.16; in data set [4] (cell cycle stage: mitosis), 2.97.

Regarding “MAALAPLPPLPAQFKSIQHHLRTAQEHDKRDPVVAYYCRLYAMQTGMKIDSKTPECRKFLSKLMDQLEALKKQLGDNEAITQEIVGCAHLENYALKMFLYADNEDRAGRFHKNMIKSFYTASLLIDVITVFGELTDENVKHRKYARWKATYIHNCLKNGETPQAGPVGIEEDNDIEENEDAGAASLPTQPTQPSSSSTYDPSNMPSGNYTGIQIPPGAHAPANTPAEVPHSTGVASNTIQPTPQTIPAIDPALFNTISQGDVRLTPEDFARAQKYCKYAGSALQYEDVSTAVQNLQKALKLLTTGRE [VTA1]”, the “solubility in G1/S (log2)” value in data set [1] was found to be 0.0799. In addition, the melting temperature in data set [2] (cell cycle stage: G1/S) was 50.9 °C; in data set [2] (cell cycle stage: mitosis), 50.4 °C. In data set [3], the “solubility change mitosis (log2)” value stood at 0.325. In addition, the thermal stability score was -1.99 in data set [4] (setting [5]) and -2.34 in data set [4] (cell cycle stage: mitosis).

Turning to STRIP1, the “solubility in G1/S (log2)” value in data set [1] was determined as 0.0221. The melting temperature is 51.3 °C in data set [2] (cell cycle stage: G1/S) and 49.6 °C in data set [2] (cell cycle stage: mitosis). The “solubility change mitosis (log2)” value in data set [3] was -0.214. Moreover, the thermal stability score in data set [4] (setting [5]) worked out at 0.575; in data set [4] (cell cycle stage: mitosis) it was 0.412.

Turning to LMO7, the “solubility in G1/S (log2)” value in data set [1] was -1.14. Further, the melting temperature in data set [2] (cell cycle stage: G1/S) is 51 °C; in data set [2] (cell cycle stage: mitosis), 51.1 °C. Moreover, the “solubility change mitosis (log2)” value in data set [3] was found to be 0.694. For the same substance, the results for the thermal stability score in data set [4] (setting [5]) and in data set [4] (cell cycle stage: mitosis) were 3.45 and 3.47, respectively.

Values taken from the supplement of paper PMC5998384.
